According to patent publication US20250270289A1, “SEQUENCE-DEFINED POLYMERS WITH ONE OR MORE AZIDES, METHODS OF MAKING, AND METHODS OF USE THEREOF” (Yale University, priority 2021, published 2025):

How the values were obtained:
[1] = Half-life from blood samples by GFP ELISA after injection; assay type: in vivo, C57BL/6 mice; details: intravenous, 50 μg, no ISAz treatment
Method: The half-lives of ELP-GFP constructs were calculated from concentrations measured from blood samples collected over the course of a week. The experiments were initiated by injecting 120 μL of 10 μM ELP-GFP intravenously or subcutaneously. At indicated times, 2 μL blood was collected from a tail puncture, and diluted 1:25 in heparin tubes. The blood sample was vortexed briefly and cells were pelleted by centrifugation (2 min at 14,000 g). The soluble fraction was collected and frozen at −20° C. until analysis. ELP-GFP concentrations of the samples were determined using a GFP ELISA Kit (Abcam, cat. #ab171581). The samples were diluted in PBS as needed, to ensure that the concentration fell within the quantifiable range of the standard curve.
Next, experiments were designed to determine if the tighter binding affinity translates into prolonged half-life in C57BL/6J mice. A total of 50 μg of each protein variant (10 μM in PBS) was injected intravenously, and blood was collected after 1, 4, 8, 16 and 24 hours, followed by daily collections through seven days. The blood levels of ELP(nFA)-GFP constructs were measured using a GFP-specific ELISA, and their pharmacokinetic profiles were calculated (see FIGS. 7F and 7G).

[2] = target: mouse serum albumin (MSA) (Mus musculus, UniProt P07724); assay: Surface plasmon resonance, steady-state affinity; details: not ISAz treated; mean (s.d.) of 4-8 experiments; n.d. = no binding detected
mouse serum albumin (MSA), sequence (P07724 25-608): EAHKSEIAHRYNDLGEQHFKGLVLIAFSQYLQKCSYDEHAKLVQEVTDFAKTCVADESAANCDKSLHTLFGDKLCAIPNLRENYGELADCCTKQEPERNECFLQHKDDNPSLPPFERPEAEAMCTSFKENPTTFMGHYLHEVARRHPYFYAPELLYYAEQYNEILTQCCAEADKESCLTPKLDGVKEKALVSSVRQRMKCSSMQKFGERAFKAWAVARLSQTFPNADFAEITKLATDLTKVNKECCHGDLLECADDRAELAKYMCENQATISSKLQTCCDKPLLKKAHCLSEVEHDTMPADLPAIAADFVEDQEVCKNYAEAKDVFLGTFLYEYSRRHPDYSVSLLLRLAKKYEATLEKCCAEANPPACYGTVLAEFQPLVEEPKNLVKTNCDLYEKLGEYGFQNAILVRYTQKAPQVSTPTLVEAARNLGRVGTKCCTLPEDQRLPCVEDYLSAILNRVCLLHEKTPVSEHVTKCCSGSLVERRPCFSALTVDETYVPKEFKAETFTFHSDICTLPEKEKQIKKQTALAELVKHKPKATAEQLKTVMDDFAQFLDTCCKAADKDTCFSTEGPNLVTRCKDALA

B1: ELP(0FA)GFP: ELP-GFP fusion, 10 pentadecapeptide repeats with tyrosine at the guest residue, no conjugated fatty acids (SEQ ID NO:33) (protein)
chain: MSKGPGVPGGGVPGAGVPGYGVPGGGVPGAGVPGYGVPGGGVPGAGVPGYGVPGGGVPGAGVPGYGVPGGGVPGAGVPGYGVPGGGVPGAGVPGYGVPGGGVPGAGVPGYGVPGGGVPGAGVPGYGVPGGGVPGAGVPGYGVPGGGVPGAGVPGYGPGGGG
- half-life [1]: 1.7 h
- KD MSA [2]: no detectable binding
